Assay results published in publication PMC4860851 (Cell Discovery, 2015).

What was measured:
[1] = biological target: Recombinant H1 HA with His Tag from Influenza A/Brisbane/59/2007 H1N1; assay: SPR; conditions: read off a plot
[2] = FACS surface staining of BW transfectants; conditions: glycan lost; control: WT Ncr1 zeta
[3] = recognition of fusion proteins by eight anti-Ncr1 mAbs; conditions: glycan lost; control: WT Ncr1 Ig
[4] = full-length expression in HEK 293T (data not shown); conditions: glycan lost; control: WT full-length Ncr1
[5] = FACS, lentiviral expression in IL2-activated human NK cells; conditions: glycan lost; control: WT full-length Ncr1
[6] = biological target: T1, HA Ig (extracellular part of the HA protein of PR8 influenza fused to human IgG1), biotin-conjugated (influenza A/Puerto Rico/8/34 H1N1 (PR8), UniProt P03452 18-528, biotin); assay: far-Western, overlay or dot blot; conditions: both partners purified
T1 construct: also called biotinylated HA Ig

Row | Molecule | response ([1]; parent: est. 190) | response ([1]; parent: est. 380) | response ([1]; parent: est. 560) | response ([1]; parent: est. 700) | expression_or_secretion [2] | stability_or_folding [3] | localisation_or_trafficking [4] | expression_or_secretion [5] | binding result [6]
1 | Ncr1 Ig fusion protein (extracellular part of mouse Ncr1 fused to human IgG1) (from UniProt Q8C567) T222A; T225A | 35 RU | 85 RU | 150 RU | 210 RU | – | – | – | – | –
2 | Ncr1: Ncr1 T222A (protein) parent chain: MLPTLTALLCLGLCLSQRINTEKETLPKPIIWAKPSIMVTNGNSVNIWCQGAQSASEYQLYFEGSFFALERPKPSRSMNKVRFFISQMTSHTAGIYTCFYQSGELWSKSSNPLKLVVTGLYDTPNLWVYPRPEVTLGENVTFFCQLKTATSKFFLLKERGSNHIQNKYGNIQAEFPMGPVTRAHRGTYRCFGSYNDYAWSFPSEPVTLLITGGVENSSLAPTDPTSSLDYWEFDLSTNESGLQKDSAFWDHTTQNLIRIGLACIILITLVWLLTEDWLSKRKDHEEANRLTNWECRRRWRMQHYFEEEQRNAISMMELKATPGAL | – | – | – | – | no change | no change | no change | – | –
3 | Ncr1: Ncr1 N139 216 238A (protein) parent chain: MLPTLTALLCLGLCLSQRINTEKETLPKPIIWAKPSIMVTNGNSVNIWCQGAQSASEYQLYFEGSFFALERPKPSRSMNKVRFFISQMTSHTAGIYTCFYQSGELWSKSSNPLKLVVTGLYDTPNLWVYPRPEVTLGENVTFFCQLKTATSKFFLLKERGSNHIQNKYGNIQAEFPMGPVTRAHRGTYRCFGSYNDYAWSFPSEPVTLLITGGVENSSLAPTDPTSSLDYWEFDLSTNESGLQKDSAFWDHTTQNLIRIGLACIILITLVWLLTEDWLSKRKDHEEANRLTNWECRRRWRMQHYFEEEQRNAISMMELKATPGAL | – | – | – | – | decreases | no change | decreases | abolishes | –
4 | Ncr1: Ncr1 T222 225A (protein) parent chain: MLPTLTALLCLGLCLSQRINTEKETLPKPIIWAKPSIMVTNGNSVNIWCQGAQSASEYQLYFEGSFFALERPKPSRSMNKVRFFISQMTSHTAGIYTCFYQSGELWSKSSNPLKLVVTGLYDTPNLWVYPRPEVTLGENVTFFCQLKTATSKFFLLKERGSNHIQNKYGNIQAEFPMGPVTRAHRGTYRCFGSYNDYAWSFPSEPVTLLITGGVENSSLAPTDPTSSLDYWEFDLSTNESGLQKDSAFWDHTTQNLIRIGLACIILITLVWLLTEDWLSKRKDHEEANRLTNWECRRRWRMQHYFEEEQRNAISMMELKATPGAL | – | – | – | – | no change | no change | no change | no change | –
5 | Ncr1: Ncr1 T225A (protein) parent chain: MLPTLTALLCLGLCLSQRINTEKETLPKPIIWAKPSIMVTNGNSVNIWCQGAQSASEYQLYFEGSFFALERPKPSRSMNKVRFFISQMTSHTAGIYTCFYQSGELWSKSSNPLKLVVTGLYDTPNLWVYPRPEVTLGENVTFFCQLKTATSKFFLLKERGSNHIQNKYGNIQAEFPMGPVTRAHRGTYRCFGSYNDYAWSFPSEPVTLLITGGVENSSLAPTDPTSSLDYWEFDLSTNESGLQKDSAFWDHTTQNLIRIGLACIILITLVWLLTEDWLSKRKDHEEANRLTNWECRRRWRMQHYFEEEQRNAISMMELKATPGAL | – | – | – | – | no change | no change | no change | – | –
6 | Ncr1 Ig fusion protein (extracellular part of mouse Ncr1 fused to human IgG1) (Fc fusion, UniProt Q8C567 17-255, looked up, Carries N-linked glycans (N139, N216, N238) and putative O-linked glycans (T222, T225); also called WT Ncr1 Ig; WT Ncr1) QRINTEKETLPKPIIWAKPSIMVTNGNSVNIWCQGAQSASEYQLYFEGSFFALERPKPSRSMNKVRFFISQMTSHTAGIYTCFYQSGELWSKSSNPLKLVVTGLYDTPNLWVYPRPEVTLGENVTFFCQLKTATSKFFLLKERGSNHIQNKYGNIQAEFPMGPVTRAHRGTYRCFGSYNDYAWSFPSEPVTLLITGGVENSSLAPTDPTSSLDYWEFDLSTNESGLQKDSAFWDHTTQN | – | – | – | – | – | – | – | – | binds
